Data published in patent EP2017284A1 (INSTITUT PASTEUR, dated 2009).

Biological target: T1, GST-E2 fusion protein (HPV18 E2) (HPV18, UniProt P06790 1-365)
T1 sequence: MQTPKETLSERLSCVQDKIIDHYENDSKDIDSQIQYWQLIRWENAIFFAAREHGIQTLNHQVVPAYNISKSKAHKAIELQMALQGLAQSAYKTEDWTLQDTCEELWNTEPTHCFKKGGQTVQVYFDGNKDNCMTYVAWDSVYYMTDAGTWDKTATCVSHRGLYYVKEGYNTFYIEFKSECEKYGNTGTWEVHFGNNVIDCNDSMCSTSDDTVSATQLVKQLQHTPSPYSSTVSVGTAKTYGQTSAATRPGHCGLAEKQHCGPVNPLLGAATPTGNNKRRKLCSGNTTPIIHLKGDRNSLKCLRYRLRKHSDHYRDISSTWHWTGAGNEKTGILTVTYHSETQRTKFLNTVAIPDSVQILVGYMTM
Assay: GST pull-down of 35S in vitro translated protein, autoradiography

B1: caspase 8 catalytic domain (C8 CD) (other)
chain: EFSKERSSSLEGSPDEFSNGEELCGVMTISDSPREQDSESQTLDKVYQMKSKPRGYCLIINNHNFAKAREKVPKLHSIRDRNGTHLDAGALTTTFEELHFEIKPHDDCTVEQIYEILKIYQLMDHSNMDCFICCILSHGDKGIIYGTDGQEAPIYELTSQFTGLKCPSLAGKPKVFFIQACQGDNYQKGIPVETDSEEQPYLEMDLSSPQTRYIPDEADFLLGMATVNNCVSYRNPAEGTWYIQSLCQSLRERCPRGDDILTILTEVNYEVSNKDDKKNMGKQMPQPTFTLRKKLVFPSD
notes: range 180-480; also called caspase catalytic domain
Question: Does B1 bind?
Answer: no binding
